Reference: PMC10397247
Values belong to the binder of their own block, whether it stands above or below them.

Assays:
Assay in all cases: two-hybrid library CCNG1;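 further: natural log of median RNA to DNA barcode read ratio; higher means stronger binding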
4H908-bA = molecular target: T1, 4H908-bA
T1 chain: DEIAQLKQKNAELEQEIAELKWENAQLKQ

4H918-bA = molecular target: T2, 4H918-bA
T2 chain: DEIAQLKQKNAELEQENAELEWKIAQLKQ

4H953-bA = molecular target: T3, 4H953-bA
T3 chain: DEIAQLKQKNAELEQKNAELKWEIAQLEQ

4H967-bA = molecular target: T4, 4H967-bA
T4 chain: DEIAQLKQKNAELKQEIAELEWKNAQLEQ

P11A-bN = molecular target: T5, P11A-bN
T5 chain: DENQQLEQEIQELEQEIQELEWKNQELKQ

4H1369-bH = molecular target: T6, 4H1369-bH
T6 chain: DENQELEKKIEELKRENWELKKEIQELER

4H1446-bH = molecular target: T7, 4H1446-bH
T7 chain: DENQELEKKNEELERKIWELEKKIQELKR

4H1845-bH = molecular target: T8, 4H1845-bH
T8 chain: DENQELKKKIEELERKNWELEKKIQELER

4H2576-bH = molecular target: T9, 4H2576-bH
T9 chain: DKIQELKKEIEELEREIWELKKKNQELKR

4H2610-bH = molecular target: T10, 4H2610-bH
T10 chain: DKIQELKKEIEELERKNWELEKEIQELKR

4H2667-bH = molecular target: T11, 4H2667-bH
T11 chain: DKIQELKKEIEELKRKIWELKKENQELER

4H2697-bH = molecular target: T12, 4H2697-bH
T12 chain: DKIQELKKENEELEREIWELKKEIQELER

4H3189-bH = molecular target: T13, 4H3189-bH
T13 chain: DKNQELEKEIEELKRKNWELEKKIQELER

4H331-bH = molecular target: T14, 4H331-bH
T14 chain: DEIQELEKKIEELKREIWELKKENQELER

4H3606-bH = molecular target: T15, 4H3606-bH
T15 chain: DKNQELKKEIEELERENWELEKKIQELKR

4H370-bH = molecular target: T16, 4H370-bH
T16 chain: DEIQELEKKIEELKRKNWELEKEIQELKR

4H3782-bH = molecular target: T17, 4H3782-bH
T17 chain: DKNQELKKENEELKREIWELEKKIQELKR

4H3843-bH = molecular target: T18, 4H3843-bH
T18 chain: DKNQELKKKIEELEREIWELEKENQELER

4H4001-bH = molecular target: T19, 4H4001-bH
T19 chain: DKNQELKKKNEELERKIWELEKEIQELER

4H462-bH = molecular target: T20, 4H462-bH
T20 chain: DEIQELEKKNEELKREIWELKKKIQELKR

4H568-bH = molecular target: T21, 4H568-bH
T21 chain: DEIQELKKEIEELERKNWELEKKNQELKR

4H607-bH = molecular target: T22, 4H607-bH
T22 chain: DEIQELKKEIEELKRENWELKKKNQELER

4H687-bH = molecular target: T23, 4H687-bH
T23 chain: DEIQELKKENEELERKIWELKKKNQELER

4H72-bH = molecular target: T24, 4H72-bH
T24 chain: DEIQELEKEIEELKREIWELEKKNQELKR

4H797-bH = molecular target: T25, 4H797-bH
T25 chain: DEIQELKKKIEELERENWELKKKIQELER

4H883-bH = molecular target: T26, 4H883-bH
T26 chain: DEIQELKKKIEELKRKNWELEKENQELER

4H918-bH = molecular target: T27, 4H918-bH
T27 chain: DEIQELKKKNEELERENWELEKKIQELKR

4H953-bH = molecular target: T28, 4H953-bH
T28 chain: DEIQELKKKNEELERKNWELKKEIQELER

4H967-bH = molecular target: T29, 4H967-bH
T29 chain: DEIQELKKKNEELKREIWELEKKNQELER

O9-bN = molecular target: T30, O9-bN
T30 chain: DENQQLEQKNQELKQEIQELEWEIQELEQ

P12A-bN = molecular target: T31, P12A-bN
T31 chain: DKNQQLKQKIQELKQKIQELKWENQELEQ

P1A-bN = molecular target: T32, P1A-bN
T32 chain: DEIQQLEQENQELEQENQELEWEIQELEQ

P2A-bN = molecular target: T33, P2A-bN
T33 chain: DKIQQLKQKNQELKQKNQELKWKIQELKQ

P3A-bN = molecular target: T34, P3A-bN
T34 chain: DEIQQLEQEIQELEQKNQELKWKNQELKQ

P4A-bN = molecular target: T35, P4A-bN
T35 chain: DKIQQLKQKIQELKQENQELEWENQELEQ

P5A-bN = molecular target: T36, P5A-bN
T36 chain: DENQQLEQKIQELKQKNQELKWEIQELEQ

P6A-bN = molecular target: T37, P6A-bN
T37 chain: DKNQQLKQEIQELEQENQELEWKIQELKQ

P7A-bN = molecular target: T38, P7A-bN
T38 chain: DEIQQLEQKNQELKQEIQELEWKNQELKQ

P8A-bN = molecular target: T39, P8A-bN
T39 chain: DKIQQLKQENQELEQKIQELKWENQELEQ

P9A-bN = molecular target: T40, P9A-bN
T40 chain: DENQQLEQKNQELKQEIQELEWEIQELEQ

4H1158-bA = molecular target: T41, 4H1158-bA
T41 chain: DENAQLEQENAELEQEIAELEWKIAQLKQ

4H118-bA = molecular target: T42, 4H118-bA
T42 chain: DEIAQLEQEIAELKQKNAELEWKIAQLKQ

4H170-bA = molecular target: T43, 4H170-bA
T43 chain: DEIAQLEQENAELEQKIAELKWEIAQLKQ

4H1831-bA = molecular target: T44, 4H1831-bA
T44 chain: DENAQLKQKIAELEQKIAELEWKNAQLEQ

4H2253-bA = molecular target: T45, 4H2253-bA
T45 chain: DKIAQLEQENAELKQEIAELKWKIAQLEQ

4H2586-bA = molecular target: T46, 4H2586-bA
T46 chain: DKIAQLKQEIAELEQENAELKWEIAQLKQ

4H2627-bA = molecular target: T47, 4H2627-bA
T47 chain: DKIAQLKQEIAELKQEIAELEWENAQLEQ

4H2673-bA = molecular target: T48, 4H2673-bA
T48 chain: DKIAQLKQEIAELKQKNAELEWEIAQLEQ

4H2702-bA = molecular target: T49, 4H2702-bA
T49 chain: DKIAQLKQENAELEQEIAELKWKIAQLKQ

4H3010-bA = molecular target: T50, 4H3010-bA
T50 chain: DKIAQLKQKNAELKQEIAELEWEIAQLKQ

4H3112-bA = molecular target: T51, 4H3112-bA
T51 chain: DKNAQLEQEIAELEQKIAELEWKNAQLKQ

4H3427-bA = molecular target: T52, 4H3427-bA
T52 chain: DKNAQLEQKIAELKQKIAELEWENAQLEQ

4H346-bA = molecular target: T53, 4H346-bA
T53 chain: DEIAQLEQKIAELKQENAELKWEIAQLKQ

4H3926-bA = molecular target: T54, 4H3926-bA
T54 chain: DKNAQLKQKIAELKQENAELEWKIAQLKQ

4H4073-bA = molecular target: T55, 4H4073-bA
T55 chain: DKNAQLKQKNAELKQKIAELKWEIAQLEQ

4H457-bA = molecular target: T56, 4H457-bA
T56 chain: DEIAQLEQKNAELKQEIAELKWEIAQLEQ

4H575-bA = molecular target: T57, 4H575-bA
T57 chain: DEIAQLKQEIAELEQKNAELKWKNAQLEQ

4H683-bA = molecular target: T58, 4H683-bA
T58 chain: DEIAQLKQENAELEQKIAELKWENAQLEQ

4H754-bA = molecular target: T59, 4H754-bA
T59 chain: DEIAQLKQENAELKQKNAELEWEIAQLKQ

4H780-bA = molecular target: T60, 4H780-bA
T60 chain: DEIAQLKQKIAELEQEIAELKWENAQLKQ

4H797-bA = molecular target: T61, 4H797-bA
T61 chain: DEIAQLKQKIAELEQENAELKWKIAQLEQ

4H855-bA = molecular target: T62, 4H855-bA
T62 chain: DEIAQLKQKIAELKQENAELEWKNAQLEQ

4H968-bA = molecular target: T63, 4H968-bA
T63 chain: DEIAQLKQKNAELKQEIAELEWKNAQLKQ

interaction score (4H908-bA): 0.539 | interaction score (4H918-bA): 0.429 | interaction score (4H953-bA): -0.801 | interaction score (4H967-bA): -0.532 | interaction score (P11A-bN): 1.22
Binder: DEIAQLKQKNAELEQEIAELKWENAQLKQ [4H908-bA]

interaction score (4H1369-bH): -0.455 | interaction score (4H1446-bH): -1.19 | interaction score (4H1845-bH): -0.792 | interaction score (4H2576-bH): -0.848 | interaction score (4H2610-bH): 0.178 | interaction score (4H2667-bH): -0.433 | interaction score (4H2697-bH): -0.653 | interaction score (4H3189-bH): -0.572 | interaction score (4H331-bH): -0.491 | interaction score (4H3606-bH): 1.14 | interaction score (4H370-bH): -1.73 | interaction score (4H3782-bH): -0.489 | interaction score (4H3843-bH): -0.198 | interaction score (4H4001-bH): -0.331 | interaction score (4H462-bH): -1.88 | interaction score (4H568-bH): -1.94 | interaction score (4H607-bH): -0.13 | interaction score (4H687-bH): 0.994 | interaction score (4H72-bH): -1.58 | interaction score (4H797-bH): -0.464 | interaction score (4H883-bH): -0.565 | interaction score (4H918-bH): -1.26 | interaction score (4H953-bH): -0.636 | interaction score (4H967-bH): -0.723 | interaction score (O9-bN): -3.43
Binder: DENQELEKKIEELKRENWELKKEIQELER [4H1369-bH]

interaction score (4H1369-bH): -1.31 | interaction score (4H1446-bH): 0.331 | interaction score (4H1845-bH): -0.384 | interaction score (4H2576-bH): 1.67 | interaction score (4H2610-bH): 0.958 | interaction score (4H2667-bH): -0.993 | interaction score (4H2697-bH): 0.213 | interaction score (4H3189-bH): -0.241 | interaction score (4H331-bH): 1.28 | interaction score (4H3606-bH): 0.235 | interaction score (4H370-bH): -0.934 | interaction score (4H3782-bH): 0.448 | interaction score (4H3843-bH): 1.38 | interaction score (4H4001-bH): 1.01 | interaction score (4H462-bH): 0 | interaction score (4H568-bH): 0.634 | interaction score (4H607-bH): -1.86 | interaction score (4H687-bH): -1.73 | interaction score (4H72-bH): 0.492 | interaction score (4H797-bH): 0.552 | interaction score (4H883-bH): 0.137 | interaction score (4H918-bH): -0.116 | interaction score (4H953-bH): -0.534 | interaction score (4H967-bH): -1.62
Binder: DENQELEKKIEELERKIWELKKKNQELKR [4H1328-bH]

interaction score (P11A-bN): 0.197 | interaction score (P12A-bN): -0.334 | interaction score (P1A-bN): -0.0109 | interaction score (P2A-bN): -1.29 | interaction score (P3A-bN): -2.58 | interaction score (P4A-bN): 0 | interaction score (P5A-bN): -0.55 | interaction score (P6A-bN): -0.522 | interaction score (P7A-bN): 0.528 | interaction score (P8A-bN): -1.93
Binder: DKNQQLKQENQELEQKIQELKWKIQELKQ [P10A-bN]

interaction score (P11A-bN): 0.856 | interaction score (P12A-bN): 0.458 | interaction score (P1A-bN): -0.501 | interaction score (P2A-bN): 0.436 | interaction score (P3A-bN): 0.143 | interaction score (P4A-bN): 1.12 | interaction score (P5A-bN): -1.3 | interaction score (P6A-bN): -0.465 | interaction score (P7A-bN): -0.868 | interaction score (P8A-bN): 0.54 | interaction score (P9A-bN): 0.422
Binder: DENQQLEQEIQELEQEIQELEWKNQELKQ [P11A-bN]

interaction score (4H1158-bA): -0.559 | interaction score (4H118-bA): 0.591 | interaction score (4H170-bA): -1.67 | interaction score (4H1831-bA): 0.132 | interaction score (4H2253-bA): 0.12 | interaction score (4H2586-bA): -0.706 | interaction score (4H2627-bA): 1.15 | interaction score (4H2673-bA): -0.0392 | interaction score (4H2702-bA): 0.584 | interaction score (4H3010-bA): 2.11 | interaction score (4H3112-bA): -0.0196 | interaction score (4H3427-bA): 0.681 | interaction score (4H346-bA): -0.31 | interaction score (4H3926-bA): 0.769 | interaction score (4H4073-bA): 2.53 | interaction score (4H457-bA): 1.02 | interaction score (4H575-bA): 0.324 | interaction score (4H683-bA): -1.19 | interaction score (4H754-bA): -0.283 | interaction score (4H780-bA): 0.459 | interaction score (4H797-bA): 0 | interaction score (4H855-bA): 0.0299 | interaction score (4H918-bA): -0.069 | interaction score (4H953-bA): -0.12 | interaction score (4H968-bA): 0.0766
Binder: DENAQLEQENAELEQEIAELEWKIAQLKQ [4H1158-bA]
